What all share (assay): cell-based or functional assay
For assay [1], the target named is chymosin polypeptide secreted by fungi transformed with pGRG2 (A. niger glucoamylase signal peptide and propeptide fused to bovine prochymosin) (bovine) (UniProt P00794).
The target of assay [2] is chymosin polypeptide secreted by fungi transformed with pGRG3 (bovine preprochymosin under the glucoamylase promoter) (bovine) (UniProt P00794).
In assay [3] the target is chymosin polypeptide secreted by fungi transformed with pGRG1 (A. niger glucoamylase signal peptide fused to bovine prochymosin) (bovine) (UniProt P00794).

For the substance pepstatin (peptide), the Chymosin Activity (µg/ml) of pGRG2 broth after preincubation with pepstatin (0.1 without pepstatin) in assay [1] was found to be 0 µg/ml. The substance also yielded a Chymosin Activity (µg/ml) of pGRG3 broth after preincubation with pepstatin (3 without pepstatin) in assay [2] of 0.6 µg/ml. The substance further gave a Chymosin Activity (µg/ml) of pGRG1 broth after preincubation with pepstatin (0.2 without pepstatin) in assay [3] of 0.05 µg/ml.

For the origin of these results see US6379928.
